# Patent publication US20160355602A1 (Astellas, published 2016)
# Several values for one entry are separate records, joined by “and”; a condition that tells them apart may be missing. Identical values can stand only once.
# B1: fully human 31-5F5-2F3.m1 (antibody, human IgG1, kappa, V domains shown)
# VH: EVQLVESGGGLVQPGGSLRLSCAASGFTFSNYAMSWVRQAPGKGLEWVAAIYGRGGYTNYADSVKGRFTISRDNSKNTLYLQMNSLRAEDTAVYYCAKEGGGYRDYFDYWGQGTLVTVSS
# VL: DVQMTQSPSSLSASVGDRVTITCRSSQSLVFSDGNTYLNWFQQKPGKAPKRLIYKVSNRDSGVPSRFSGSGSGTDFTLTISSLQPEDFATYYCMQGAHWPLTFGQGTKVEIKR
# notes: Human Igγ1 / human kappa constant regions; also called fully human anti-human TLR2 antibody; fully human antibody of 31-5F5-2F3.m1
# B2: fully human ICU-1-Igγ1-LAsh (bispecific antibody, human IgG1, kappa, L234A L235A)
# heavy: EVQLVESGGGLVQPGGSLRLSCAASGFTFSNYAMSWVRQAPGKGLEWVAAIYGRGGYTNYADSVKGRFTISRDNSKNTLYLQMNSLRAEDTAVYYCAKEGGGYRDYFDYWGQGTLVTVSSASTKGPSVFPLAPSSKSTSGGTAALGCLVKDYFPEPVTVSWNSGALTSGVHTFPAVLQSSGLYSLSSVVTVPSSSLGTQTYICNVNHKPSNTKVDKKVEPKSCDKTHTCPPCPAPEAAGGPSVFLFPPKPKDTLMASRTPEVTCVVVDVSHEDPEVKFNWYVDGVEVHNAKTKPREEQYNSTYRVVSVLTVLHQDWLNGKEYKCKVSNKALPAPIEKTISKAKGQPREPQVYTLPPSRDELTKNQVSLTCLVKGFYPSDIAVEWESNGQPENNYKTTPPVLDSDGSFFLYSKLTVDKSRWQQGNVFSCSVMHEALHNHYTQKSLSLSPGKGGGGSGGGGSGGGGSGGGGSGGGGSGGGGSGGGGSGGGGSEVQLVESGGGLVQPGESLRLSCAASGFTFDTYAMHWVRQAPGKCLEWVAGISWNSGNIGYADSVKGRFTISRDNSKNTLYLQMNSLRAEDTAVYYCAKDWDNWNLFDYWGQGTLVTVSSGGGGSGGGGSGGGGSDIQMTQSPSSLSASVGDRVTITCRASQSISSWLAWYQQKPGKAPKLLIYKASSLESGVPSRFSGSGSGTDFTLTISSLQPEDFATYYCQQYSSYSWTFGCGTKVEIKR
# light: DVQMTQSPSSLSASVGDRVTITCRSSQSLVFSDGNTYLNWFQQKPGKAPKRLIYKVSNRDSGVPSRFSGSGSGTDFTLTISSLQPEDFATYYCMQGAHWPLTFGQGTKVEIKRTVAAPSVFIFPPSDEQLKSGTASVVCLLNNFYPREAKVQWKVDNALQSGNSQESVTEQDSKDSTYSLSSTLTLSKADYEKHKVYACEVTHQGLSSPVTKSFNRGEC
# notes: As fully human ICU-1-Igγ1, but with L234A, L235A and I253A (EU index) in the human Igγ1 constant region; also called IgG(TLR2)-scFv(TLR4) bispecific antibody with L234A, L235A and I253A
# B3: fully human ICU-1-Igγ1 (bispecific antibody, human IgG1, kappa)
# heavy: not shown
# light: B2 light
# notes: Tetravalent IgG-scFv: an anti-TLR4 scFv is joined by a GS linker to the C terminal of each heavy chain of the anti-TLR2 IgG1; also called IgG(TLR2)-scFv(TLR4) bispecific antibody
# Experiments:
# [1] = molecular target: T1, human TLR2 endogenously expressed on cells (THP1-xBlue cells; normal human peripheral blood mononuclear cells) (human, UniProt O60603 21-784); experiment: cell-based or functional assay
# [2] = molecular target: T2, human TLR2 protein (R&D Systems, 2616-TR-050) (human, UniProt O60603 21-590, limits assumed); experiment: SPR (Biacore T200), human TLR2 protein captured by anti-His IgG on CM5 chip, antibody at 200 nM as analyte, bivalent analyte model
# T2 construct: Bought recombinant protein
# Protocol: To evaluate a binding activity of the fully human 31-5F5-2F3.m1 prepared in Example 4 for human TLR2, an SPR analysis was carried out.
# In the SPR analysis, Biacore T200 (GE Healthcare Japan) was used to carry out analysis. An Anti-His IgG (enclosed in His Capture Kit) was immobilized on a sensor chip CM5 (GE Healthcare Japan, BR-1005-30) using a His Capture Kit (GE Healthcare Japan, 28-9950-56) and Amine Coupling Kit (GE Healthcare Japan, BR-1000-50). Flow path No. 1 is referred to as a reference, onto which the human TLR2 protein was not attached. Onto each of other flow paths (No. 2, No. 3, and No. 4), a human TLR2 protein (R&D Systems, 2616-TR-050) diluted to 0.66 μg/mL in HBS-EP+ buffer (GE Healthcare Japan, BR-1006-69) was added at a flow rate of 5 μL/minute for 2 minutes and then immobilized. Thereafter, a solution of fully human 31-5F5-2F3.m1 diluted to 200 nM in HBS-EP+buffer was added at a flow rate of 50 μL/minute for 2 minutes, and the fully human antibody-human TLR2 binding was measured. Next, HBS-EP+buffer was added at a flow rate of 50 μL/minute for 5 minutes and the dissociation of the fully human antibody and human TLR2 was measured. Bivalent analyte model and the Rmax were analyzed by Fit local to calculate the association rate constant (ka) and dissociation rate constant (kd), and the association-dissociation constant (KD) was calculated by dividing kd by ka.
# [3] = molecular target: human TLR4/MD2 endogenously expressed on normal human peripheral blood mononuclear cells (human, UniProt O00206 24-839; Q9Y6Y9 19-160); experiment: cell-based or functional assay
# [4] = molecular target: T1, human TLR2 endogenously expressed on …; experiment: cell-based or functional assay; remark: listed apart in the source
# [5] = molecular target: T2, human TLR2 protein (R&D Systems, …); experiment: ELISA, human TLR2 protein immobilized on plate, detection with anti-human IgG-HRP
# Protocol: (§1) In order to evaluate the binding activity of each of two bispecific antibodies prepared in Example 8 for human TLR2 and human TLR4, ELISA was carried out using a human TLR2 protein and a human TLR4/MD2 protein. 15 μL/well of a human TLR2 protein (R&D Systems, 2616-TR-050) diluted to a concentration of 10 μg/mL in PBS (Life Technologies, 10010-023) was added to a MaxiSorp 384-well plate Clear (Thermo Fisher Scientific Inc.), followed by immobilization at room temperature for 1 hour. Similarly, 15 μL/well of a human TLR4/MD2 protein (R&D Systems, 3146-TM/CF) was added at 10 μg/mL, followed by immobilization at room temperature for 1 hour. After 1 hour, the wells were washed three times with a washing solution (0.05% Tween-20-containing Tris-buffered saline (TBS)), and 100 μL/well of Blocking One (NACALAI TESQUE, INC., 03953-95) was added, followed by blocking at room temperature for 1 hour. The wells were washed again three times with a washing solution, 15 μL/well of two bispecific antibodies prepared in Example 8 was added to the well on which the human TLR2 protein was immobilized and the well on which the human TLR4/MD2 protein was immobilized. […] An absorbance at 450 nm was measured by using Safire2 (TECAN), and an EC50 value of each antibody for the human TLR2 protein and the human TLR4/MD2 protein was calculated.
# [6] = molecular target: T3, human TLR4/MD2 protein (R&D Systems, 3146-TM/CF) (human, UniProt O00206 24-631; Q9Y6Y9 17-160, limits assumed); experiment: ELISA, human TLR4/MD2 protein immobilized on plate, detection with anti-human IgG-HRP
# T3 construct: Bought recombinant complex; also called human TLR4 and MD2 complex
# Protocol: as §1
# T2 sequence (O60603 21-590 limits assumed): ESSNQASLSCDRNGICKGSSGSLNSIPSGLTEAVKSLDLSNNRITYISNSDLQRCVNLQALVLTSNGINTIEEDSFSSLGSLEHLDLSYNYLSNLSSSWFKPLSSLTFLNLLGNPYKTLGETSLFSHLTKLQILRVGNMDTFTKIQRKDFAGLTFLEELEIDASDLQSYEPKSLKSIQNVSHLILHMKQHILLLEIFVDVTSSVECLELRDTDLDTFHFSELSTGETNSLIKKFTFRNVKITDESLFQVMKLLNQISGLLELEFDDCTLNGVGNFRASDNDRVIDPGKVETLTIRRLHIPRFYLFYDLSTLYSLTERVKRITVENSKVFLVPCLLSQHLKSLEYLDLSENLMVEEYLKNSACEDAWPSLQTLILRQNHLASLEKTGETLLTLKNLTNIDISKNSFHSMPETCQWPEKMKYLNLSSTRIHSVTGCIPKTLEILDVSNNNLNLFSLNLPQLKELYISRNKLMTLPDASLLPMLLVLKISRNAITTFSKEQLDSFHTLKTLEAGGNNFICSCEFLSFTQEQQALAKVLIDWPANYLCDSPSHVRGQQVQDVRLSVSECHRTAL
# T1 sequence (O60603 21-784): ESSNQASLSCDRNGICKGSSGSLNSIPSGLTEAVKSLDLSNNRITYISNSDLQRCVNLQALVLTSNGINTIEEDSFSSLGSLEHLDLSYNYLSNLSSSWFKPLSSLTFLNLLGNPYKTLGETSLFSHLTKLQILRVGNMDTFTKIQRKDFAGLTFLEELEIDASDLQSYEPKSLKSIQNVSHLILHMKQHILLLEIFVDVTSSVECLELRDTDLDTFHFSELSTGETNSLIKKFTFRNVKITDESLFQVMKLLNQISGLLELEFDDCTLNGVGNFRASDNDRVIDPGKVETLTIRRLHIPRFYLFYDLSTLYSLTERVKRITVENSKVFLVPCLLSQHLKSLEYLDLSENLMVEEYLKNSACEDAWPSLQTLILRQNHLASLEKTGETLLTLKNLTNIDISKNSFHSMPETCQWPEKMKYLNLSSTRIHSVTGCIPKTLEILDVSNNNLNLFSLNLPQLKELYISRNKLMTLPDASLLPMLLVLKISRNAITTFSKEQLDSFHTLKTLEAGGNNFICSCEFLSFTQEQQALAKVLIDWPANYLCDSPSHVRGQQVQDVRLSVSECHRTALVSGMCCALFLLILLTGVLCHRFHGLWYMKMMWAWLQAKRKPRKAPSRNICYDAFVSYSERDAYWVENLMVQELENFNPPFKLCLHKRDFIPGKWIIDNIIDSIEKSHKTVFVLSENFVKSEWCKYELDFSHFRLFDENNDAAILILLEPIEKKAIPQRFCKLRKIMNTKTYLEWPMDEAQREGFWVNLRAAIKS
# T3 sequence (O00206 24-631 limits assumed, chain 1 of 2): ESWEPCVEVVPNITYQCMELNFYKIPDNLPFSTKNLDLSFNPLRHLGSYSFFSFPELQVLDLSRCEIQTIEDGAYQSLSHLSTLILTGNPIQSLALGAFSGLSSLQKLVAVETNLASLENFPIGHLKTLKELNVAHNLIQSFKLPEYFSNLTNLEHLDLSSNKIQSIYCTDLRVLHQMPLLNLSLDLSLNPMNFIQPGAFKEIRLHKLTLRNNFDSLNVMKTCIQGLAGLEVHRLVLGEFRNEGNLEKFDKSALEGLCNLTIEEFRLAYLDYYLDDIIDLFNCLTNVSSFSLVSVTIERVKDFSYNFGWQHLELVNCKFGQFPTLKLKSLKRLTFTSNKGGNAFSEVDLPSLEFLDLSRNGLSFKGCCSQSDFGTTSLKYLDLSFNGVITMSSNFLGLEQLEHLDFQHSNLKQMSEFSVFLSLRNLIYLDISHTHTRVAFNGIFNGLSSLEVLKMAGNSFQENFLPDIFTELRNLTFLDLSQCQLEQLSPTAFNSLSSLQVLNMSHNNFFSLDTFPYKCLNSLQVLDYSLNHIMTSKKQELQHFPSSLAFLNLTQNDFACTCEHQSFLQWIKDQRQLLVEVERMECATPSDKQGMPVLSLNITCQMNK
# T3 sequence (Q9Y6Y9 17-160 limits assumed, chain 2 of 2): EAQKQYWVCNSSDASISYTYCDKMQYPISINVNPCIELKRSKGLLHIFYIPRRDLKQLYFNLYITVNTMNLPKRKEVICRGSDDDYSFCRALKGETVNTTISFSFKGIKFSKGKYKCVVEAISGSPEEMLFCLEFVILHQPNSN
# Sequence of human TLR4/MD2 endogenously expressed on normal human peripheral blood mononuclear cells (O00206 24-839, chain 1 of 2): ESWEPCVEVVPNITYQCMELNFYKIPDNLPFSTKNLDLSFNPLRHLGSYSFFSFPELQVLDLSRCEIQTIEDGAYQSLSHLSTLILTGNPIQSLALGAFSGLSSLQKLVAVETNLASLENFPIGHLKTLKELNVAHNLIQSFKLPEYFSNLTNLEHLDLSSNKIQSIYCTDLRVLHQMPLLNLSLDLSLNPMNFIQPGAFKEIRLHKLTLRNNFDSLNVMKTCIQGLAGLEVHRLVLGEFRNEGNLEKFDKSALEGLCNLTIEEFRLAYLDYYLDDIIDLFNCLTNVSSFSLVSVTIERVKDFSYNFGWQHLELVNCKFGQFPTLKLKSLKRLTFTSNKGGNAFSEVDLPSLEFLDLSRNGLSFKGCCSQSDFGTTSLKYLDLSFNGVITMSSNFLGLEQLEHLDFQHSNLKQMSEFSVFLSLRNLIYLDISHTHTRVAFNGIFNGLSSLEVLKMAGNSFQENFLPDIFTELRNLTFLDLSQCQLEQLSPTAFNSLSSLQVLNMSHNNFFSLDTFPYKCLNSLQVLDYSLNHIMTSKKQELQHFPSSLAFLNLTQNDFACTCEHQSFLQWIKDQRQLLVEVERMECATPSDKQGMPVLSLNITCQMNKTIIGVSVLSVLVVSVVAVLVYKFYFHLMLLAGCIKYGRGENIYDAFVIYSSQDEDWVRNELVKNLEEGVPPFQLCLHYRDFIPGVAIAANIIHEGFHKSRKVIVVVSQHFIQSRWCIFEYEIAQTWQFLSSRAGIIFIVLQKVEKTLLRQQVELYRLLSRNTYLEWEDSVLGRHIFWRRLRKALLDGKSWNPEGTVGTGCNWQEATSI
# Sequence of human TLR4/MD2 endogenously expressed on normal human peripheral blood mononuclear cells (Q9Y6Y9 19-160, chain 2 of 2): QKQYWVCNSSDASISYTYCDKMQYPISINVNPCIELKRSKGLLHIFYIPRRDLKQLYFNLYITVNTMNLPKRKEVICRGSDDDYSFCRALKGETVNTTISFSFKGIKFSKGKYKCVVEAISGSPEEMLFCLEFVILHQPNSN
Binder,IC50 value against Pam2CSK4-induced AP production in THP1-xBlue cells [1],Kd [2] [pM],"IC50 value, killed Pseudomonas aeruginosa-induced TNFα production on normal human peripheral blood mononuclear cells [3] [pM]","IC50 value, killed Pseudomonas aeruginosa-induced TNFα production on normal human peripheral blood mononuclear cells [4] [pM]",EC50 [5] [pM],EC50 [6] [pM]
B1,97.7 pM and 130 pM,88.5,–,–,–,–
B2,–,–,17.2,17.2,210,522
B3,–,–,40,40,150,494
